Values joined by “and” are separate entries in the source; they are usually repeats but may differ in a detail not shown here. Identical values can stand only once. Some results are limits rather than exact numbers.

For one series, the target named is smURFP H61R. The series is described as follows: native gel or EMSA; NativePAGE 4-16% Bis-Tris gel, 0.27 μg purified protein per lane, without and with 100 mM DTT; Coomassie stain and far-red fluorescence; homodimeric smURFP used as a size reference.
Series [1] deals with the molecule itself. The series is described as follows: cell-based or functional assay.
Series [2] concerns the molecule itself. The series is described as follows: crystal structure; apo-smURFP crystallised from smURFP with 20% BV attached; hanging drop, 20 °C, 4 M Na nitrate + 0.1 M NaOAc (pH 4.6); 2.8 Å, space group C222(1), six protomers (three homodimers) in the asymmetric unit.

CytERM-mGFP: the OSER assay in HEK293A cells expressing CytERM-mGFP: ratio of the MFI of the OSER structure to the MFI of the nuclear envelope, after 24 and 48 h in the series with CytERM-mGFP is < 2.3.
Consider smURFP H61R, for which, in the series with smURFP H61R, the stoichiometry N was 2 and > 2.

B1: small Ultra-Red Fluorescent Protein (smURFP) (other)
chain: MKTSEQRVNIATLLTENKKKIVDKASQDLWRRHPDLIAPGGIAFSQRDRALCLRDYGWFLHLITFCLLAGDKGPIESIGLISIREMYNSLGVPVPAMMESIRCLKEASLSLLDEEDANETAPYFDYIIKAMS
modifications: biliverdin (BV) covalently attached to C52 in part of the protein (20% BV with high expression); the crystal holds apo-smURFP
Take B1: in series [1], the “OSER assay in HEK293A cells expressing CytERM-smURFP: ratio of the MFI of the OSER structure to the MFI of the nuclear envelope, after 24 h (4.8) and 48 h (3.7)” value was 4.8. Further, the “stoichiometry N” value in series [2] stood at 2.

Values taken from article PMC10338489, “Structural and photophysical characterization of the small ultra-red fluorescent protein” (Nature Communications, 2023).
